For test [1], the target named is His-tagged α subunit of acetyl-CoA carboxylase (AccA), biotinylated (Streptomyces hygroscopicus var. ascomyceticus FS35).
For test [2] the target is unchanged. This is another data set of the same source.

B1: GlnB protein (PII signal transduction protein encoded by gene 1_2537), native (untagged) (natural protein)
chain: MSIKAEYIWIDGTQPTAKLRSKTKILSDGSRLPRWGFDGSSTNQAEGHASDLVLEPVFSCPDPIRGGDHLLVLCEVLHTDLTPHPSNTRALLRPVAERFAGQEPIFGIEQEYTFLKGDRPLGFPEGGGYPAPQADYYCGVGADAIFGREIVEKHLDLCLAAGLGLSGINAEVMPGQWEFQVGALPPLEVSDHMWVARWLLHRVAEEFGVTASLDAKPAKGDWNGAGAHTNFSTRAMREGYDPIITACEALGQDDKPLEHVRQYGTGIEDRLTGAHETAPWDAYSYGASDRGASVRIPWQVEVEKKGYIEDRRPNANVDPYVVTRLMVDTCCTELARREQI
As for B1, in test [1], the maximal calculated inhibition of ACC by GlnB at rising concentrations (from 0 μM, stable above 1.5 μM), without 2-OG is 50% and the maximal calculated inhibition of PCC by GlnB at rising concentrations (from 0 μM, stable above 1.5 μM), without 2-OG is 24.7%. Further, in test [2], the in vitro activity of ACC in the coupled enzyme assay with 5 μM GlnB, against 100% without GlnB was determined as 54.2% and the in vitro activity of PCC in the coupled enzyme assay with 5 μM GlnB, against 100% without GlnB was determined as 76.5%.

Source of the values: publication PMC8187598.
